The values that follow come from patent publication US20240035010, “COMPOSITIONS COMPRISING A VARIANT POLYPEPTIDE AND USES THEREOF” (Arbor Biotechnologies, Inc., published 2024).

The target in data set [1] is T1, variant nuclease L38G combination (P14R, D32R, I61R, E311R, L38G).
T1 chain: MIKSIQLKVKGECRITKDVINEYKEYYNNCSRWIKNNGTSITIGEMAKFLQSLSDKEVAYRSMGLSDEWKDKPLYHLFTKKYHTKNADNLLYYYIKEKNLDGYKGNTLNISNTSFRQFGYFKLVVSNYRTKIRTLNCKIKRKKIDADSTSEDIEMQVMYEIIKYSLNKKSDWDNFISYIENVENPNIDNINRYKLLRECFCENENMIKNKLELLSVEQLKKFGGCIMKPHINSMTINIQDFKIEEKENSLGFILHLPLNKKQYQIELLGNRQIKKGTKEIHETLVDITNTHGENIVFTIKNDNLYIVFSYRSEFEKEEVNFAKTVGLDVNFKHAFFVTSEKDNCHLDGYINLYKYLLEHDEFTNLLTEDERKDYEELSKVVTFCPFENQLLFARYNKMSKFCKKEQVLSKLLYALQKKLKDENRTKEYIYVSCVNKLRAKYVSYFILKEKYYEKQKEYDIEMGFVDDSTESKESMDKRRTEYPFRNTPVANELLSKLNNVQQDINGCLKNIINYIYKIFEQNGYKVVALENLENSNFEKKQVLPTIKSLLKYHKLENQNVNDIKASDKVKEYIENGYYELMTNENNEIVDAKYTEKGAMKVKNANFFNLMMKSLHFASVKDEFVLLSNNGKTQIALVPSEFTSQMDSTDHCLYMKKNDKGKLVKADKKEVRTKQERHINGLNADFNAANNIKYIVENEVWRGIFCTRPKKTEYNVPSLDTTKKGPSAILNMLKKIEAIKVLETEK
The experiment in a line: cell_activity; PAM 5'-TTTA-3'. To be noted: tags: pcDNA3.1 expression. The protocol: (§1) Approximately 16 hours prior to transfection, 25,000 HEK293T cells in DMEM/10% FBS+Pen/Strep (D10 media) were plated into each well of a 96-well plate. On the day of transfection, the cells were 70-90% confluent. For each well to be transfected, a mixture of Lipofectamine 2000™ and Opti-MEM™ was prepared and incubated at room temperature for 5 minutes (Solution 1). After incubation, the Lipofectamine 2000™:Opti-MEM™ mixture was added to a separate mixture containing nuclease plasmid, RNA guide plasmid, and Opti-MEM™ (Solution 2). In the case of negative controls, the RNA guide plasmid was not included in Solution 2. Solutions 1 and 2 were mixed by pipetting up and down, then incubated at room temperature for 25 minutes. Following incubation, the Solution 1 and 2 mixture was added dropwise to each well of a 96-well plate containing the cells. Approximately 72 hours post transfection, cells were trypsinized by adding TrypLE™ to the center of each well and incubating at 37° C. for approximately 5 minutes. D10 media was then added to each well and mixed to resuspend cells. The resuspended cells were centrifuged at 500 g for 10 minutes to obtain a pellet, and the supernatant was discarded. The cell pellet was then resuspended in QuickExtract™ buffer (Lucigen®), and cells were incubated at 65° C. for 15 minutes, 68° C. for 15 minutes, and 98° C. for 10 minutes.
(§2) This Example describes assessment of indel activity at multiple target sites using the wild-type polypeptide of SEQ ID NO: 3 or variant polypeptides of Table 4. The variant polypeptides were cloned into a pcDNA3.1 backbone (Invitrogen), and the cells were transfected as described in Example 7.
(§3) The percentage of NGS reads containing indels (% indels) were calculated. For each variant polypeptide and target, % indels were averaged across two bioreplicates and two technical replicates. These values were then compared to % indels of the wild-type polypeptide of SEQ ID NO: 3.

Data set [2] addresses T2, variant nuclease 7 substitutions D590G/E154G/E736G (P14R, D32R, I61R, E311R, D590G, E154G, E736G).
T2 chain: T1 chain with G38L, E154G, D590G, E736G
The experiment in a line: cell_activity; PAM 5'-TTTA-3'. To be noted: tags: pcDNA3.1 expression. Here is the method:
as §1, §2, §3

Where a chain is given by its changes, count along the chain named.

B1: VEGFA crRNA ; VEGFA target (ssRNA ; dsDNA)
RNA: CUUGUUGUAUAUGUCCUUUUAUAGGUAUUAAACAACUCCAGACCACCAAUGGGCAC
DNA 1: TCCAGACCACCAATGGGCAC
DNA 2: GTGCCCATTGGTGGTCTGGA
As for B1, the indel activity in data set [1] was 0.22 fold of WT; in data set [2], 3.13 fold of WT.
